In assay [1] the target is T1, Beta (B.1.351) RBD, biotinylated (SARS-CoV-2, Beta (B.1.351), N501Y | E484K | K417N, biotinylated (site not stated)).
T1 construct: also called Beta RBD; Beta-RBD
Nature of the assay: SPR. Particulars: both partners purified.

In assay [2] the target is T2, Alpha (B.1.1.7) RBD, biotinylated (SARS-CoV-2, Alpha (B.1.1.7), N501Y, biotinylated (site not stated)).
T2 construct: also called Alpha RBD; RBD-Kent
Nature of the assay: SPR. The note with it: both partners purified.

From publication PMC8458290 (Nature Communications, 2021) come the findings set out here.

B1: nanobody C1 (monovalent VHH, pOPINO construct) (VHH)
VHH: QVQLVESGGGLVQPGGSLRLSCAASGFTNDFYSIAWFRQAPGKEREGVSWLSVSDNTPTYVDSVKDRFTISRHNANNTVYLQMNMLKPEDTAIYYCAAGRFAGRDTWPSSYDYWGQGTQVTVSS
The Kd is the constant that tells how readily two partners part at equilibrium. In turn, B1 showed a Kd in assay [1] of 0.648 nM. In assay [2], this molecule showed a Kd of 0.725 nM and a T1/2 of 21 min.

B2: nanobody F2 (monovalent VHH, pOPINO construct) (VHH)
VHH: QVQLVESGGGLVQAGGSLRLACIASGRTFHSYVMAWFRQAPGKEREFVAAISWSSTPTYYGESVKGRFTISRDNAKNTVYLQMNRLKPEDTAVYFCAADRGESYYYTRPTEYEFWGQGTQVTVSS
In assay [1], B2 came in with an equilibrium dissociation constant (Kd) of 0.038 nM and a T1/2 of 52 min. In assay [2], this molecule gave a dissociation constant (Kd) of 0.047 nM and a T1/2 of 51 min.
